The EC50 is the concentration that produces a half-maximal response.

Substitutions are numbered along the chain they refer to.

The chains are these.
B1: Q15CK-B1 (antibody, V domains shown)
VH: EVQLQQSGPQLVRPGASVKISCKASGYSFTSYWMHWVKQRPGQGLEWIGMIDPSDSETRLNQKFKDKATLTVDKSSSTAYMQLSSPTSEDSAVYYCARWDSWGQGTLVTVSA
VL: DIVMTQSPSSLTVTAGEKVTMSCKSSQSLSKSGNQKNYLTWYQQKPGQPPKLLIYWASTRESGVPDRFTGSGSGTDFTLTISSVQAEDLAVYYCQNDYSYPFTFGSGTKLEIK
B2: Q15CK-D6 (antibody, V domains shown)
VH: B1 VH with S31N, N61D
VL: B1 VL with V3L, M4L, S30L, K31N
B3: Q15CK-D4 (antibody, V domains shown)
VH: EVQLVESGGGLVQPGGSRKLSCAASGFTFSTFGMHWVRQAPEKGLEWVAYISSGSYTIYYADTVKGRFTISRDNPKNTLFLQMTSLRSEDTAMYYCARDDYDVNYYAMDYWGQGTSVTVSS
VL: DIVLSQSPAIMSASPGEKVTMTCSASSSVSYMHWYQQKSSTSPKLWIYDTSKLASGVPGRFSGSGSGNSYSLTISSMEAEDVATYYCFQGSGYPYTFGGGTKLEIK
B4: Q15CK-A8 (antibody, V domains shown)
VH: EVKLQESGAELVKPGASVKLSCTASGFNIEDTYIHWVKQRPEQGLEWIGRIDPANGNTKYDPKFQGKATITEDTSSNTAYLQLSSLTSEDTAVYYCAIHYYGSFAYWGQGTLVTVSA
VL: DIQITQSRKFMSTSVGDRVSVTCKASQNVGTNVAWYQQKPGQSPKALIYSASYRYSGVPDRFTGSGSGTDFTLTISNVQSEDLAEYFCQQYNSYPYTFGGGTKLELK
B5: Q15CK-H5 (antibody, V domains shown)
VH: B4 VH with K3Q, E6Q, K19R, E30K, I34M, K38R, F64S, I70L, E72A, Q82H
VL: B4 VL with Q3V, I4M, R8Q, Y96L, G100A
B6: Q15CK-B10 (antibody, V domains shown)
VH: B4 VH with K3Q, E6Q, A9T, E30K, I34M, G56D, E72T, A105P
VL: DIVMTQSQKFMSTSVGDRVSITCKASQNVGTAVAWYQQKPGQSPKLLIYSASNRYTGVPDRFTGSGSGTDFTLTISNMQSEDLADYFCQQYSSYPYTFGGGTKLELK
B7: Q15Kcr-G8-mFc (Fc fusion, mouse)
VH: B4 VH with K3Q, E6Q, G26D, E30K, N55D, E72A, A105P
VL: B6 VL with S7A, Q8H, K24Q, N28D, S50W, N53T, Y55H, M78V, L106I
notes: as the scFv of m42; source: HEK 293F, transfected, purified (Protein A, Superdex 200 SEC)
B8: Q15Kcr-H11 phage (scFv, V domains shown)
VH: EVQLQQSGAELVKTGASVKLSCTASGFSIKDTYIHWVKQRPEQGLEWIGRIDPDPATINTKYDPHFQDKATITADTSSNTTYLQLSSLTSEDTAVYYCAIHYYGSFPYWGQGTLVTVSA
VL: DIQMTQTTSSLSASLGDRVTISCRASQDISNYLNWYQQKPDGTVKLLIYFTSRLHSGVPSRFSGSGSGTDYSLTISNLEQEDIATYFCQQGNTLPYTFGGGTKLELK
notes: mouse scFv from the Q15Kcr immunization library; source: E. coli XL1-Blue with M13KO7 (ΔpIII) hyperphage, monoclonal phage, PEG 8000/NaCl precipitated
B9: CL-E2 phage (scFv, V domains shown)
VH: EVQLKESGAELMKPGASVKISCKATGYTFSSYWIEWVKQRPGHGLEWIGEILPGSGSTNYNEKFKGKATFTADISSNTAYMQLSSLTSEDSAVYYCASGGYRPSMDFWGQGTSVTVSS
VL: DIVMTQSQKFMSTSVGDRVSITCKASQNVRTAVAWYQQKPGQSPKALIYLASNRHTGVPDRFTGSGSGTDFTLTITNVQSEDLADYFCLQHWNYPLTFGAGTKLELK
notes: mouse scFv from the E64AcrK immunization library; also called phage CL-E2; source: E. coli XL1-Blue with M13KO7 (ΔpIII) hyperphage, monoclonal phage, PEG 8000/NaCl precipitated
B10: Q15Kcr-B6 phage (scFv, V domains shown)
VH: B4 VH with K3Q, E30K, G56V, E72A, Y106H, S116P
VL: B6 VL with Q8H, N28D, S50W, N53T, Y55H, M78V, Y96L, G100S, L106I
notes: as for B8
B11: Q15Kcr-D1 phage (scFv, V domains shown)
VH: B4 VH with K3Q, G56D
VL: B4 VL with Q3L, I4M, K45E, E85D, S93T, L106M
notes: as for B8
B12: Q15Kcr-C1 phage (scFv, V domains shown)
VH: B4 VH with K3Q, E6Q, E30K, N55D, E72A, A105P
VL: B8 VL with T20S, A25T, V44L, N92K
notes: as for B8
B13: Q15Kcr-A3 phage (scFv, V domains shown)
VH: B4 VH with K3Q, E6Q, E30K, T71R, E72A
VL: B6 VL with V3L, Q8H, N28D, S50W, N53T, Y55H, M78V, L106I
notes: as for B8
B14: Q15Kcr-H2 phage (scFv, V domains shown)
VH: B4 VH with K3Q, E6Q, E30K, G56V, E72A, Y106H
VL: B4 VL with Q3L, I4M, R8Q, S50Q
notes: as for B8
B15: Q15Kcr-C7 phage (scFv, V domains shown)
VH: B9 VH with L4Q, K5Q, E6Q, A9T, I74T, S75T, F107Y, T112I
VL: B4 VL with D1G, Q3E, I4L, R8Q, M11T, S50Q, Y96L, G100A
notes: as for B8
B16: E64Kcr-A4-mFc (Fc fusion, mouse)
VH: EVKLEESGGGLVQPGGSMKLSCVASGFTFSNYWMNWVRQSPEKGLEWVAEIRLKSNNYATPYAESVKGRFTISRDDSKSSVYLQMNNLRAEDTGIYYCTRGGIFLAYWGQGTLVTVSA
VL: B8 VL with M4L, T7P, F50Y
notes: as the scFv of m29; source: HEK 293F, transfected, purified (Protein A, Superdex 200 SEC)
B17: E64Kcr-B9-mFc (Fc fusion, mouse)
VH: EVQLQQSGAELVKPGASVKLSCTASGFNIKDTYMHWVKQRPEQGLEWIGRIDPANGNTKYDPKFQGKATITADTSSNTAYLQLSSLTSEDTAVYYCAIHYYGSLPVWGAGTTVTVSS
VL: B6 VL with D1G, Q8H, N28D, S50W, N53T, Y55H, M78V, Y96L, G100A, K103M
notes: as the scFv of m30; source: HEK 293F, transfected, purified (Protein A, Superdex 200 SEC)
B18: E64Kcr-G9-mFc (Fc fusion, mouse)
VH: B3 VH with T31S, Y56S, N104R, Y105A
VL: DIQMIQSPASLSASVGETVTITCRASQNIYSYLAWYQQKQGKSPQLLVYNAKTLAEGVPSRFSGSGSGTQFSLKINSLQPEDFGSYYCQHHYGTPLTFGAGTKLELK
notes: as the scFv of m27; source: HEK 293F, transfected, purified (Protein A, Superdex 200 SEC)
B19: E64Kcr-A5-mFc (Fc fusion, mouse)
VH: B3 VH with T31S, A97T, N104R, Y105A
VL: DIVMTQPSSSFSVSLGDRVTITCKASEDIYNRLAWYQQKPGNAPRLLISGATTLETGVPSRFSGSGSGKDYTLTITSLQTEDVATYYCQQYWSTPLTFGAGTKLELK
notes: as the scFv of m25; source: HEK 293F, transfected, purified (Protein A, Superdex 200 SEC)
B20: CL-E2-mFc (Fc fusion, mouse)
VH: B9 VH
VL: B9 VL
notes: as the scFv of m23; also called CL-E2-mFc fusion antibody; source: HEK 293F, transfected, purified (Protein A, Superdex 200 SEC)

The target in the first assay is T1, wildtype (WT) human interleukin-1β (Homo sapiens, UniProt P01584).
Test: not given
Conditions: not given
With B1, the binding result is “binds”.
On the same count and under the same terms, then B2, with “binds”; and B3, with “binds”.
Still for that read-out and setting: then B4, with “binds”.
In the case of B5, the binding result is “binds”.
With B6, the binding result is recorded as “binds”.

Another assay addresses hIL-1βQ15Kcr (Homo sapiens, UniProt P01584, point mutant, Nε-crotonyl-L-lysine (Kcr) at 15).
Test: not given
Conditions: not given
With B1, the binding result is recorded as “binds”.
As to B2, the binding result was “binds”.
Still for that read-out and setting: then B3, with “binds”; and B4, with “binds”.
Same read-out and setting: then B5, with “binds”; and B6, with “binds”.

Another assay has as its target T2, hIL-1βQ15G (Homo sapiens, UniProt P01584, point mutant).
T2 construct: human interleukin-1β (hIL-1β); source: E. coli BL21 (DE3), purified (Ni-NTA, Superdex 75 SEC)
The assay is described as follows: not stated; binding affinity of Q15Kcr-G8-mFc for hIL-1β, hIL-1βQ15Kcr and hIL-1βQ15G (Figure S13E). The settings on record: both partners purified.
On to B7, for which the “fold decrease of affinity” value was about 10 fold.

In another assay the target is T1, wildtype (WT) human interleukin-1β. Put plainly: ELISA; phage ELISA; antigen (100 ng) coated on the plate; phages added (pfu titration) in 3% skim milk in DPBST, 2 h at 37 °C. The settings on record: one partner purified. A general note: An ELISA detects its analyte on a solid surface through an enzyme-linked reagent.
As for B8, the binding result was “binds”.
The same measure, in the same setting: the value for B9 was “binds”; that for B10 was “binds”.
Still for that read-out and setting: then B11, with “binds”; and B12, with “binds”; and B13, with “binds”.
In the case of B14, the binding result is “binds”.
Regarding B15, the binding result was “binds”.

For a further assay, the target named is T3, hIL-1β V151A (Homo sapiens, UniProt P01584, point mutant).
T3 construct: human interleukin-1β (hIL-1β); source: E. coli BL21 (DE3), purified (Ni-NTA, Superdex 75 SEC)
Put plainly: ELISA; antigen (100 ng) coated on the plate; scFv-mFc added in 3% skim milk in DPBST, 2 h at 37 °C; EC50. The settings on record: both partners purified.
In the case of B16, the binding result was “binds”.
For B17, the binding result is reported as “binds”.
Still for that read-out and setting: then B18, with “binds”; and B19, with “binds”.

The target in a further assay is T1, wildtype (WT) human interleukin-1β. The assay is described as above. The settings on record: both partners purified.
The molecule B16 gave a half-maximal effective concentration (EC50) of 121 pM.
Regarding B17, the EC50 was determined as 40 pM.
On the same count and under the same terms, then B18, with 197 pM; and B19, with 34 pM.

The target is the same in a further assay. The assay is described as above. The settings on record: both partners purified. The source holds these as a separate data set.
Take B20: the binding result is given as “binds”.

Source of the values: PMC10311653 (ACS Central Science, 2023).
